Data: the supplement of paper PMC7877785
± gives the uncertainty stated by the source.

Assay: self-splicing fitness, log relative to wild type (ln ratio); higher = more splicing; Tetrahymena group I intron in knt gene, E. coli kanamycin selection, DiMSum; sequences stand for … in CUCUCU…GGAGGGAAAAGUUAUCAGGCAUGCACCUGGUAGCUAGUCUUUAAACCAAUAGAUUGCAUCGGUUUAAAAGGCAAGACCGUCAAAUUGCGGGAAAGGGGUCAACAGCCGUUCAGUACCAAGUCUCAGGGGAAACUUUGAGAUGGCCUUGCAAAGGGUAUGGUAAUAAGCUGACGGACAUGGUCCUAACCACGCAGCCAAGUCCUAAGUCAACAGAUCUUCUGUUGAUAUGGAUGCAGUUCACAGACUAAAUGUCGGUCGGGGAAGAUGUAUUCUUCUCAUAAGAUAUAGUCGGACCUCUCCUUAAUGGGAGCUAGCGGAUGAAGUGAUGCAACACUGGAGCCGCUGGGAACUAAUUUGUAUGCGAAAGUAUAUUGAUUAGUUUUGGAGUACUCGUGGUCG
Method in brief: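 A randomised library covering all eight P1ex-region intron nucleotides was built with the intron in the knt kanamycin-resistance gene on pET-22b(+) and held in E. coli BL21(DE3). Cells were grown overnight at 37°C or 30°C on LB agar, with or without 25 μg/mL kanamycin, plus 100 μg/mL carbenicillin, 50 μM IPTG and 0.2% rhamnose, and pooled colonies were amplicon-sequenced on an Illumina HiSeq 2500. DiMSum fitness is the error-weighted combination of wild-type-normalised replicate fold changes, kanamycin versus none.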

Sequence | self-splicing fitness (ln) (30 °C) | self-splicing fitness (ln) (37 °C)
AACAAGCAAUAUUACGAUCC | -1.13 ± 0.077 | 0.0585 ± 0.1
AACAAGCAAUAUUACGAUGU | -1.64 ± 0.077 | -0.411 ± 0.094
AACAAGCAAUAUUACGCAUC | -2.41 ± 0.15 | -1.77 ± 0.18
AACAAGCAAUAUUACGCGCC | -0.296 ± 0.15 | -0.317 ± 0.18
AACAAGCAAUAUUACGCGGU | -3.69 ± 0.14 | -2.03 ± 0.11
AACAAGCAAUAUUACGCUAU | -2.25 ± 0.075 | -1.52 ± 0.074
AACAAGCAAUAUUACGGACU | -0.217 ± 0.063 | 0.775 ± 0.099
AACAAGCAAUAUUACGGAUA | -3.95 ± 0.2 | -2.18 ± 0.12
AACAAGCAAUAUUACGGAUG | -2.4 ± 0.08 | -2.37 ± 0.096
AACAAGCAAUAUUACGGAUU | -1.38 ± 0.071 | -0.641 ± 0.077
AACAAGCAAUAUUACGGCCC | -0.249 ± 0.12 | -0.0486 ± 0.2
AACAAGCAAUAUUACGGCCU | 0.0767 ± 0.082 | 0.355 ± 0.1
AACAAGCAAUAUUACGGCUU | -1.14 ± 0.081 | -0.539 ± 0.084
AACAAGCAAUAUUACGGGGU | -3.36 ± 0.11 | -2.28 ± 0.13
AACAAGCAAUAUUACGGUCG | -0.247 ± 0.08 | -0.152 ± 0.086
AACAAGCAAUAUUACGGUGA | -0.546 ± 0.059 | -0.765 ± 0.073
AACAAGCAAUAUUACGUACG | -1.65 ± 0.082 | -0.628 ± 0.094
AACAAGCAAUAUUACGUCGC | -3.63 ± 0.14 | -2.21 ± 0.17
AACAAGCAAUAUUACGUCUC | -3.51 ± 0.2 | -1.89 ± 0.16
AACAAGCAAUAUUACGUGCA | -0.969 ± 0.048 | -0.28 ± 0.065
AACAAGCAAUAUUACGUGCC | -0.971 ± 0.086 | -0.503 ± 0.12
AACAAGCAAUAUUACGUGCU | -2.57 ± 0.16 | -1.51 ± 0.14
AACAAGCAAUAUUACGUGGC | -3.61 ± 0.18 | -2.52 ± 0.14
AACAAGCAAUAUUACGUUGC | -2.83 ± 0.18 | -3.21 ± 0.32

Sequence | self-splicing fitness (ln) (30 °C) | self-splicing fitness (ln) (37 °C)
AACCAGCAAUAUUACGAGCA | -1.02 ± 0.092 | -0.505 ± 0.1
AACCAGCAAUAUUACGAGCC | -2.85 ± 0.17 | -1.72 ± 0.16
AACCAGCAAUAUUACGAGUU | -3.37 ± 0.16 | -1.78 ± 0.14
AACCAGCAAUAUUACGCAGU | -2.6 ± 0.11 | -1.35 ± 0.11
AACCAGCAAUAUUACGCCAU | -2.81 ± 0.15 | -1.42 ± 0.11
AACCAGCAAUAUUACGCCCC | -0.331 ± 0.12 | -0.517 ± 0.17
AACCAGCAAUAUUACGCCGU | -1.03 ± 0.079 | 0.182 ± 0.1
AACCAGCAAUAUUACGCCUA | -0.252 ± 0.076 | -0.557 ± 0.086
AACCAGCAAUAUUACGCGCC | -0.668 ± 0.1 | -0.521 ± 0.12
AACCAGCAAUAUUACGCGGA | -2.05 ± 0.093 | -0.49 ± 0.072
AACCAGCAAUAUUACGCGUA | -0.386 ± 0.063 | -0.313 ± 0.073
AACCAGCAAUAUUACGCUGC | -2.31 ± 0.18 | -3.1 ± 0.24
AACCAGCAAUAUUACGCUGU | -3.49 ± 0.15 | -1.4 ± 0.095
AACCAGCAAUAUUACGGGGG | -2.43 ± 0.095 | -1.02 ± 0.091
AACCAGCAAUAUUACGGUCA | -0.301 ± 0.045 | 0.0924 ± 0.062
AACCAGCAAUAUUACGUCUG | -3.9 ± 0.17 | -2.54 ± 0.16
AACCAGCAAUAUUACGUGAA | -0.843 ± 0.074 | -0.516 ± 0.087
AACCAGCAAUAUUACGUGGU | -3.19 ± 0.12 | -3.15 ± 0.17
AACCAGCAAUAUUACGUUGC | -3.21 ± 0.12 | -3.05 ± 0.19
AACGAGCAAUAUUACGAAUG | -4.03 ± 0.28 | -3.18 ± 0.25
AACGAGCAAUAUUACGAAUU | -2.78 ± 0.11 | -2.16 ± 0.12
AACGAGCAAUAUUACGACUA | -1.81 ± 0.21 | -0.213 ± 0.18
AACGAGCAAUAUUACGAGAA | -1.87 ± 0.22 | -1.56 ± 0.33
AACGAGCAAUAUUACGAUCC | -2.01 ± 0.38 | 

Sequence | self-splicing fitness (ln) (30 °C) | self-splicing fitness (ln) (37 °C)
AACGAGCAAUAUUACGCAAU | -4.26 ± 0.36 | -2.45 ± 0.27
AACGAGCAAUAUUACGCAUC | -3.65 ± 0.3 | -0.331 ± 0.18
AACGAGCAAUAUUACGCCAG | -4.01 ± 0.37 | -1.56 ± 0.32
AACGAGCAAUAUUACGCGUC | -3.01 ± 0.22 | -2.85 ± 0.38
AACGAGCAAUAUUACGCUAC |  | -1.86 ± 0.31
AACGAGCAAUAUUACGGCCA | -3.21 ± 0.18 | -1.37 ± 0.13
AACGAGCAAUAUUACGGGCC | -4.29 ± 0.39 | -3.18 ± 0.47
AACGAGCAAUAUUACGUCAU | -2.98 ± 0.1 | -2.44 ± 0.13
AACGAGCAAUAUUACGUGUC | -2.08 ± 0.11 | -2.17 ± 0.23
AACGAGCAAUAUUACGUUAA | -3.45 ± 0.36 | -2.2 ± 0.24
AACGAGCAAUAUUACGUUCA | -2.32 ± 0.17 | -1.87 ± 0.23
AACUAGCAAUAUUACGAAAU | -2.01 ± 0.09 | -0.94 ± 0.1
AACUAGCAAUAUUACGAACC | -0.5 ± 0.2 | -0.373 ± 0.21
AACUAGCAAUAUUACGAGAU | -2.52 ± 0.13 | -1.65 ± 0.14
AACUAGCAAUAUUACGAGCC | -0.792 ± 0.47 | -1.17 ± 0.34
AACUAGCAAUAUUACGCAAG | -3.14 ± 0.14 | -1.77 ± 0.15
AACUAGCAAUAUUACGCACU | -0.218 ± 0.084 | -0.0139 ± 0.11
AACUAGCAAUAUUACGCAUC | -2.73 ± 0.14 | -2.28 ± 0.22
AACUAGCAAUAUUACGCCAA | -2.83 ± 0.21 | -1.63 ± 0.16
AACUAGCAAUAUUACGCCGG | -1.63 ± 0.14 | -1.19 ± 0.17
AACUAGCAAUAUUACGCCUG | -1.08 ± 0.12 | -1.43 ± 0.13
AACUAGCAAUAUUACGCGAG | -1.82 ± 0.11 | -0.501 ± 0.12
AACUAGCAAUAUUACGCGUC | -1.95 ± 0.12 | -1.65 ± 0.14
AACUAGCAAUAUUACGGAUG | -2.26 ± 0.067 | -1.03 ± 0.072

Sequence | self-splicing fitness (ln) (30 °C) | self-splicing fitness (ln) (37 °C)
AACUAGCAAUAUUACGGCCU | -0.472 ± 0.09 | -0.0804 ± 0.095
AACUAGCAAUAUUACGGUCG | -0.193 ± 0.062 | 0.193 ± 0.085
AACUAGCAAUAUUACGGUGA | -1.58 ± 0.073 | -0.833 ± 0.099
AACUAGCAAUAUUACGUAAU | -1.82 ± 0.098 | -0.948 ± 0.099
AACUAGCAAUAUUACGUAGC | -4.04 ± 0.26 | -2.12 ± 0.21
AACUAGCAAUAUUACGUCGC | -2.63 ± 0.11 | -1.08 ± 0.14
AACUAGCAAUAUUACGUGGU | -3.36 ± 0.16 | -2.86 ± 0.23
AACUAGCAAUAUUACGUUGC | -3.47 ± 0.17 | -1.9 ± 0.22
AACUAGCAAUAUUACGUUGU | -3.51 ± 0.13 | -2.29 ± 0.12
AAGAAGCAAUAUUACGACUC | 0.456 ± 0.13 | 0.487 ± 0.18
AAGAAGCAAUAUUACGAUAG | -3.6 ± 0.28 | -1.87 ± 0.2
AAGAAGCAAUAUUACGCAAA | -2.71 ± 0.24 | -0.539 ± 0.16
AAGAAGCAAUAUUACGCAAC | -1.53 ± 0.12 | -2.1 ± 0.18
AAGAAGCAAUAUUACGCACA | -0.267 ± 0.082 | -0.233 ± 0.097
AAGAAGCAAUAUUACGCUCC | -2.37 ± 0.2 | -0.643 ± 0.18
AAGAAGCAAUAUUACGGAAG | -2.77 ± 0.094 | -1.68 ± 0.11
AAGAAGCAAUAUUACGGCAA | -0.128 ± 0.096 | -0.201 ± 0.13
AAGAAGCAAUAUUACGGCGA | -0.584 ± 0.071 | -0.285 ± 0.088
AAGAAGCAAUAUUACGGGGA | -3.37 ± 0.29 | -2.18 ± 0.17
AAGAAGCAAUAUUACGGGGU | -4.04 ± 0.29 | -2.64 ± 0.2
AAGAAGCAAUAUUACGGUAU | -2.08 ± 0.073 | -0.974 ± 0.084
AAGAAGCAAUAUUACGGUCU | -0.564 ± 0.066 | -0.233 ± 0.1
AAGAAGCAAUAUUACGGUGU | -1.99 ± 0.072 | -1.65 ± 0.086
